Experimental data taken from paper PMC6822988, “Native adiponectin in serum binds to mammalian cells expressing T-cadherin, but not AdipoRs or calreticulin” (eLife, 2019).

Key:
[1] = target: adiponectin (HMW) (Homo sapiens) (UniProt Q15848); conditions: cited from earlier work
[2] = target: the molecule itself; experiment: native gel or EMSA; native-PAGE of purified or recombinant adiponectin, 50 ng adiponectin, Western blot
[3] = target: the molecule itself; experiment: native gel or EMSA; native-PAGE of mouse serum, 50 ng adiponectin, Western blot

Chain of adiponectin (HMW) (Homo sapiens) (Q15848 19-244): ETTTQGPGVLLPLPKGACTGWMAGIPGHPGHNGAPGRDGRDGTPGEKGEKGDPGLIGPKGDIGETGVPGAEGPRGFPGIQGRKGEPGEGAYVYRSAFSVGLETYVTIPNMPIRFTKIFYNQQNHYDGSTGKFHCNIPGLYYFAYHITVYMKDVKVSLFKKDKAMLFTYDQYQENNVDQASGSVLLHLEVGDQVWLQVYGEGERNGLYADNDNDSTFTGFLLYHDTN

For T-cadherin (from UniProt P55290), the Kd [1] is listed as 1 nM.

B1: Full-length mammalian recombinant mouse adiponectin (ligand, UniProt Q60994 18-247, looked up)
chain: EDDVTTTEELAPALVPPPKGTCAGWMAGIPGHPGHNGTPGRDGRDGTPGEKGEKGDAGLLGPKGETGDVGMTGAEGPRGFPGTPGRKGEPGEAAYVYRSAFSVGLETRVTVPNVPIRFTKIFYNQQNHYDGSTGKFYCNIPGLYYFSYHITVYMKDVKVSLFKKDKAVLFTYDQYQEKNVDQASGSVLLHLEVGDQVWLQVYGDGDHNGLYADNVNDSTFTGFLLYHDTN
notes: adiponectin, mouse, full-length recombinant, produced in HEK293 cells; contains less 6-mer and HMW multimer than serum adiponectin; the secreted product probably lacks the signal peptide; also called recombinant adiponectin; full-length recombinant adiponectin produced in HEK293 cells; source: bought: BioVendor (RD272023100), produced in HEK293 cells
B1: binds [2].

B2: native mouse adiponectin in mouse serum (ligand, UniProt Q60994 18-247, looked up)
chain: B1 chain
notes: adiponectin, mouse, circulating protein of serum; multimers (6-mer and HMW multimer) seen by native-PAGE; Used both as whole serum and as adiponectin purified from serum; Mixture of multimers; also called mouse serum adiponectin; native adiponectin; source: endogenous, serum of C57BL6J mice, used as serum without processing; also purified from mouse serum (Fukuda et al., 2017)
B2: binds [3].
